Experimental data as given in doi:10.1101/2022.05.13.491800 (bioRxiv, 2022).

B1: Smc6 (natural protein, S. cerevisiae, UniProt Q12749 1-1114, looked up)
chain: MISTTISGKRPIEQVDDELLSLTAQQENEEQQQQRKRRRHQFAPMTQFNSNTLDEDSGFRSSSDVATADQDNFLEESPSGYIKKVILRNFMCHEHFELELGSRLNFIVGNNGSGKSAILTAITIGLGAKASETNRGSSLKDLIREGCYSAKIILHLDNSKYGAYQQGIFGNEIIVERIIKRDGPASFSLRSENGKEISNKKKDIQTVVDYFSVPVSNPMCFLSQDAARSFLTASTSQDKYSHFMKGTLLQEITENLLYASAIHDSAQENMALHLENLKSLKAEYEDAKKLLRELNQTSDLNERKMLLQAKSLWIDVAHNTDACKNLENEISGIQQKVDEVTEKIRNRQEKIERYTSDGTTIEAQIDAKVIYVNEKDSEHQNARELLRDVKSRFEKEKSNQAEAQSNIDQGRKKVDALNKTIAHLEEELTKEMGGDKDQMRQELEQLEKANEKLREVNNSLVVSLQDVKNEERDIQHERESELRTISRSIQNKKVELQNIAKGNDTFLMNFDRNMDRLLRTIEQRKNEFETPAIGPLGSLVTIRKGFEKWTRSIQRAISSSLNAFVVSNPKDNRLFRDIMRSCGIRSNIPIVTYCLSQFDYSKGRAHGNYPTIVDALEFSKPEIECLFVDLSRIERIVLIEDKNEARNFLQRNPVNVNMALSLRDRRSGFQLSGGYRLDTVTYQDKIRLKVNSSSDNGTQYLKDLIEQETKELQNIRDRYEEKLSEVRSRLKEIDGRLKSTKNEMRKTNFRMTELKMNVGKVVDTGILNSKINERKNQEQAIASYEAAKEELGLKIEQIAQEAQPIKEQYDSTKLALVEAQDELQQLKEDINSRQSKIQKYKDDTIYYEDKKKVYLENIKKIEVNVAALKEGIQRQIQNACAFCSKERIENVDLPDTQEEIKRELDKVSRMIQKAEKSLGLSQEEVIALFEKCRNKYKEGQKKYMEIDEALNRLHNSLKARDQNYKNAEKGTCFDADMDFRASLKVRKFSGNLSFIKDTKSLEIYILTTNDEKARNVDTLSGGEKSFSQMALLLATWKPMRSRIIALDEFDVFMDQVNRKIGTTLIVKKLKDIARTQTIIITPQDIGKIADIDSSGVSIHRMRDPERQNNSNFYN
B2: Smc5 (natural protein, S. cerevisiae, UniProt Q08204 1-1093, looked up)
chain: MTSLIDLGRYVERTHHGEDTEPRSKRVKIAKPDLSSFQPGSIIKIRLQDFVTYTLTEFNLSPSLNMIIGPNGSGKSTFVCAVCLGLAGKPEYIGRSKKVEDFIKNGQDVSKIEITLKNSPNVTDIEYIDARDETIKITRIITRSKRRSDYLINDYQVSESVVKTLVAQLNIQLDNLCQFLSQERVEEFARLKSVKLLVETIRSIDASLLDVLDELRELQGNEQSLQKDLDFKKAKIVHLRQESDKLRKSVESLRDFQNKKGEIELHSQLLPYVKVKDHKEKLNIYKEEYERAKANLRAILKDKKPFANTKKTLENQVEELTEKCSLKTDEFLKAKEKINEIFEKLNTIRDEVIKKKNQNEYYRGRTKKLQATIISTKEDFLRSQEILAQTHLPEKSVFEDIDIKRKEIINKEGEIRDLISEIDAKANAINHEMRSIQRQAESKTKSLTTTDKIGILNQDQDLKEVRDAVLMVREHPEMKDKILEPPIMTVSAINAQFAAYLAQCVDYNTSKALTVVDSDSYKLFANPILDKFKVNLRELSSADTTPPVPAETVRDLGFEGYLSDFITGDKRVMKMLCQTSKIHTIPVSRRELTPAQIKKLITPRPNGKILFKRIIHGNRLVDIKQSAYGSKQVFPTDVSIKQTNFYQGSIMSNEQKIRIENEIINLKNEYNDRKSTLDALSNQKSGYRHELSELASKNDDINREAHQLNEIRKKYTMRKSTIETLREKLDQLKREARKDVSQKIKDIDDQIQQLLLKQRHLLSKMASSMKSLKNCQKELISTQILQFEAQNMDVSMNDVIGFFNEREADLKSQYEDKKKFVKEMRDTPEFQSWMREIRSYDQDTKEKLNKVAEKYEEEGNFNLSFVQDVLDKLESEIAMVNHDESAVTILDQVTAELRELEHTVPQQSKDLETIKAKLKEDHAVLEPKLDDIVSKISARFARLFNNVGSAGAVRLEKPKDYAEWKIEIMVKFRDNAPLKKLDSHTQSGGERAVSTVLYMIALQEFTSAPFRVVDEINQGMDSRNERIVHKAMVENACAENTSQYFLITPKLLTGLHYHEKMRIHCVMAGSWIPNPSEDPKMIHFGETSNYSFD

Experiments:
Smc5 = target: B2; assay: SEC
Smc6 = target: B1; assay: co-purification

Row | Binder | stoichiometry N (Smc5) | binding result (Smc6)
1 | B1 | ~1 | 
2 | Nse6 (natural protein, S. cerevisiae, UniProt P40026 1-464, looked up) MGSVNSSPNEEFETVPDSQISGFDSPLIPTSVGSYFRDDDDDEKVHPNFISDPENDSLNSDEEFSSLENSDLNLSGAKAESGDDFDPILKRTIISKRKAPSNNEDEEIVKTPRKLVNYVPLKIFNLGDSFDDTITTTVAKLQDLKKEILDSPRSNKSIVITSNTVAKSELQKSIKFSGSIPEIYLDVVTKETISDKYKDWHFISKNCHYEQLMDLEMKDTAYSFLFGSSRSQGKVPEFVHLKCPSITNLLVLFGVNQEKCNSLKINYEKKENSRYDNLCTIFPVNKMLKFLMYFYSDDDNDDVREFFLKAFICLILDRKVFNAMESDHRLCFKVLELFNEAHFINSYFEIVDKNDFFLHYRLLQIFPHLQSALLRRRFSEKQGRTETIQQNIIKEFNEFFDCKNYKNLLYFILTMYGSKFIPFGPKCQVTEYFKDCILDISNETTNDVEISILKGILNLFSKIR | ~1 | 
3 | B2 |  | binds
4 | Nse5 (natural protein, S. cerevisiae, UniProt Q03718 1-556, looked up) MDGALINSVLYVSPRNGAHYFVELTEKHLLAFEMLNSMCLLENYDHVLLFLECQFGKSHNLAVIPFDIILVLFTLSTLSEYYKEPILRANDPYNTSRETLSRRALKLLQKYLAILKEFDSEQYNLYDLELLRCQFFLAIDTLTPKKQKWGFDRFRRTKSESGVTYRQNASVDPELDQAKTFKNPYRSYISCLEQRNTILGNRLLNLKLNEPGEFINMILWTLSNSLQESTPLFLSSHEIWMPLLEILIDLFSCRQDYFIQHEVAQNVSKSLFVQRLSESPLAVFFESLNTRNFANRFSEYVFLNCDYKLPSDNYATPVHPVYNGENTIVDTYIPTIKCSPLYKSQKSLALRRKLIGSCFKLLLRVPDGHRLITPRIVADDVIQGISRTLASFNDILQFKKFFMTENLSQESYFIPLLAEGTLSEILKDTQECVVILTLVENLSDGVSFCNEVIGLVKSKCFAFTEQCSQASYEEAVLNIEKCDVCLLVLLRYLLHLIGTEAILDAKEQLEMLHAIEKNDSGRRQWAKALNLGNDPPLLYPIVSQMFGVHDKSVIIE | ~1 | 
